Test: label from the status in PepcDB records
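Note: failed if final PepcDB status was selected cloned or expressed and not failed if soluble or beyond.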

Row | Sequence | protein production
1 | RAQTFEAVTPEYSRYAGQAFGSFQAMLSDLPDELGETIPNFHNMEFRLGQLHDALKTDPVGRAEEVRYYIDEIEKRAEEMCKAERLHREGKLPKRVCHCDTKVNNMLFDEDGHVLCVIDLDTVMPNFIFSDYGDFLRTGANTGEEDDKDLDHVNFDMEIFKAFTEGYLKGASSFLTDVEIENLPYAAALFPYMQCVRFLTDYINGDTYYKIKYPEHNLVRTRAQFRLLQSVEDCMPQMQAFIDQCLRY | not failed
2 | MNQAMDTKQIAPFTLALPEGEALPLVCDSPHSGTFYPADFGAVVAPERLRGGEDTHVDALWEAVPRVGGTLLAATFPRVYIDPNRMLDDIDPAQLEGPWPTPLAPGEKTRLGYGLIWSNVDAATPIYDRKLTVAEVQRRINRYYRPYHAALTEAVEGAYQRFGAVWHLNLHSMPNNAYERLKIQSPRPLADFVLGDRDGTTCEPGLVDLVERELREKGYTVARNDPYKGVQLIAQIGRPAERRNSLQIEIRRPLYMEEGTRERNEGFATLQRDLTLLTLRIAEYVRRGV | not failed
3 | MASATEDPVLERYFKGHKAAITSLDLSPNGKQLATASWDTFLMLWNFKPHARAYRYVGHKDVVTSVQFSPHGNLLASASRDRTVRLWIPDKRGKFSEFKAHTAPVRSVDFSADGQFLATASEDKSIKVWSMYRQRFLYSLYRHTHWVRCAKFSPDGRLIVSCSEDKTIKIWDTTNKQCVNNFSDSVGFANFVDFNPSGTCIASAGSDQTVKVWDVRVNKLLQHYQVHSGGVNCISFHPSGNYLITASSDGTLKILDLLEGRLIYTLQGHTGPVFTVSFSKGGELFASGGADTQVLLWRTNFDELHCKGLTKRNLKRLHFDSPPHLLDIYPRTPHPHEEKVETVEINPKLEVIDLQISTPPVMDILSFDSTTTTETSGRTLPDKGEEACGYFLNPSLMSPECLPTTTKKKTEDMSDLPCESQRSIPLAVTDALEHIMEQLNVLTQTVSILEQRLTLTEDKLKDCLENQQKLFSAVQQKS | failed
4 | MGGGNAQKSAMARAKNLEKAKAAGKGSQLEANKKAMSIQCKVCMQTFICTTSEVKCREHAEAKHPKADVVACFPHLKK | not failed
5 | MEATGLITEYNPFHNGHLYHLKKAQELTKADVTIVLMSGNWVQRGLPAITDKWKRAQAAIDAGADLVFELPFYYAVQAGEIFAQGAVRLLSDLQVSSIICGSEHADIDFINLAAHEPDISGNSNFDKKNRTFASNYAAALEEKTGFYLENANDILAFSYAKAILNQNLTEKIKLRTISRVSADYHDQFLNDGEIASATAIRKALSEGQNVDSYTP | failed
6 | MSDKKTQTRARILGAATQALLERGAVEPSVGEVMGAAGLTVGGFYAHFQSKDALMLEAFEQLLGKRRELLGELDPGLSGKERRALAAAFYLSRKHRDAQVDAGCPLPATLAEVARLPEGFREVLSRHVEIMVTSLAESPEETDVALADLVLMIGGLALARALGPGELSDRVLRAAKQAVN | not failed
7 | MPKFYCDYCDTYLTHDSPSVRKTHCSGRKHKENVKDYYQKWMEEQAQSLIDKTTAAFQQGK | not failed
8 | MIKVWLQQGRGLWLALFLGLLSPALVHAEEAPPGLVKVPLDRRVIDLTATLDSATQERMVHKLEALEQRRGAQIAVMLVPNLGQQSIEALSNQLFRAWKLGRKGVDDGILLLVAKNDHKVRIEVGYGLEPVVTDLLAGQIIAQDLTPAFRQGDFAGGIDRALDDLILLVDGGSLPEPAGLAVPLEAYALLLAFVFGSVAGVMLAAGWNWRRVLGGAVVLMAVLVGAVGGHEWLAQLFLVPLCMLIGGATFAGLWQARRVFYGVLGLLLYIGLLTLVSQYLGRLTFLYGLAWPAGVLLVLGGHWLLYWMMRNSWRKSPRGFLWRFAVLLTLVLLMGLGVDAWQAAQRWLRVVPFAYFLSFILFAGGSGFRWSSGGGSSSGGRSSSGGGFSGGGGSSGGGGASGSW | failed
9 | MPLPADPSPTLSAYAHPERLVTADWLSAHMGAPGLAIVESDEDVLLYDVGHIPGAVKIDWHTDLNDPRVRDYINGEQFAELMDRKGIARDDTVVIYGDKSNWWAAYALWVFTLFGHADVRLLNGGRDLWLAERRETTLDVPTKTCTGYPVVQRNDAPIRAFRDDVLAILGAQPLIDVRSPEEYTGKRTHMPDYPEEGALRAGHIPTAVHIPWGKAADESGRFRSREELERLYDFINPDDQTVVYCRIGERSSHTWFVLTHLLGKADVRNYDGSWTEWGNAVRVPIVAGEEPGVVPVV | not failed
10 | MELAVGNLSEGNASCPEPPAPEPGPLFGIGVENFVTLVVFGLIFALGVLGNSLVITVLARSKPGKPRSTTNLFILNLSIADLAYLLFCIPFQATVYALPTWVLGAFICKFIHYFFTVSMLVSIFTLAAMSVDRYVAIVHSRRSSSLRVSRNALLGVGCIWALSIAMASPVAYHQGLFHPRASNQTFCWEQWPDPRHKKAYVVCTFVFGYLLPLLLICFCYAKVLNHLHKKLKNMSKKSEASKKKTAQTVLVVVVVFGISWLPHHIIHLWAEFGVFPLTPASFLFRITAHCLAYSNSSVNPIIYAFLSENFRKAYKQVFKCHIRKDSHLSDTKENKSRIDTPPSTNCTHV | failed
11 | MLELFLKSFLTLFVVMDPVGLVPVFVALAGDRPHRTQVLIARKAVLVAGGLLTFFYFFGRELLGHLGISLEALRIAGGVLLFRIATEMVFAHHERETEEERDEALSRADISVFPLAIPLIAGPGALASVLVLGAEAKGVPYGFAVVLFTAYLVLFLAYLFLRGATAVRRALGRTGVNVVTRVLGLLLAALAVQYVADGVRGLL | failed
12 | MQARLSGTSIGLTGPAATKLVRLSRAIEWMSTIGIVLIVGLIGAVFLVPSWTRNLLLTKLGEIGTRLPLDAGNQALAAVIITVPVAVMLWGLVNVRALFAEFARGQVFTTTAATYLQRFGIAVLAQGLLGPVTATALALALSLSNPPGQRLLVLTFSSNDYVSVIVGGVLVAVAAVMREAARLADENASFV | failed
13 | MAGAITLACTIRFEANAEHVYLSSGTKQTVYHYPFPMSTIHITLNGERKEVPAGSTVSELLVIADADRQPVAVVVNEHIVRPDQRDSYILQERDQVEILVFAGGGLEHHHHHH | not failed
14 | MRTSRVLAGILAATLTVSLAACSQDSSETSSNSSSAASQSSDVSNEAFPVTIEHAFGETTIESKPERIATVGWSNHEVPLALGVTPVGFEKVTWGDDDNNGILPWVEETLSKLGSDEPVLFDATDSIPFEEIANTAPDVILASYSGITQEDYDQLSQIAPVVAYPEIAWGTSLDEMIEMNSKAIGLEQEGKDLIADLDAEVASAIDANPELKDAKPVFAFFDESDFSQIGVYTSIDPRMSFLLDAGVQEASVLKEHSSPDSFYEQVSAENPETFDDVDVIITYGTEDDAANAELLSKMQADPLLSRIPAIAEGKVVFLGANPLAASANESPLSIPWGINDYFAKLAEPLK | failed
15 | GEELLPDGVPEEVMESAQPVANEEIVAQLVSMGFSQLHCQKAAINTSNAGVEEAMNWLLSHMDDPDIDAPI | not failed
16 | MFVGHLPGAYLIFRVVTPRIERMAFTAAMLGAIAPDLDMLRFYFVDGRAFHHHEYLTHRPILWTGLLLCGVLIGMRSRRIGVPLAFFGAGGLVHMLLDSIAGKIAWAWPVSDFAAPLVVVPATQSHWILSFLSHWTFAVELGITVLALVLWRWLPRRATARR | failed
17 | MPGPIMQEVAQYLASLSGKAVVINIFAGHADRSLSQTQLAELLDKLLARHPGSAVILLDHRREIRIPLPPEVVINPFNTLHHAMALIAQAELIISPDTSVVHMAAAWNKPLIAVYKDVLLNNRLWAPGYDNARQIIVKCGKVHQHRGLVDRIIAALPETLLEHHHHHH | failed
18 | ILELIAKGKPASKIYAEIALMYEERHSGLRCSMLELKGGKLLHAGAPSLPKSYCKAVHGLEYGPQVGSCGTSTYTGKRVLVENIATDPKWADLKYVALPYGMRSCWSEPIKSSSGKVLGAFGMYHDYPALPNEQESNDLTSAARLAGIVMEREQNQKRIQ | failed
19 | MTEEKKRGFRIPSSYTVLFIIIAIMAVLTWFIPAGAYETAKGGGVISGTYKTVASNPQGFFDILMAPVRGMLGVEGTDGAIQVSFFILMVGGFLGVVNKTGALDTGIASVVRKNKGREKMLIAILIPLFALGGTTYGMGEETMAFYPLLIPVMIAVGFDSIVAVAIILIGSQIGCLASTINPFATGVAADAAGVSIADGMIWRVIQWVILVGMSIWFVYNYASKIEEDPSKSLVADKEEEHKELFQLQNSGEDLNKRQRNVLTIFTLTFVIMILSLIPWEDFGIKFFTNINTWLTTMPILGGVIGKTMGAFGTWYFPEITMLFIMMGVLVAIVYRMSEEDFFSSFLTGAGEFLGVAMICAIARGIQVIMNGGMITATILHLGETSLSGLSSQVFVILAYIFYLPMSFLIPSTSGLAGATMGIMAPLGQFSNVPAHLVITAFQSASGILNMISPTSAIVMGALALGRVDLGTWWKFIGKFIVMVMLVSVLLLVVATFF | not failed
20 | MNLKQAFIDNNSIRLGLSADTWQEAVRLAVQPLIDSKAVTSAYYDAIIASTEKYGPYYVLMPGMAMPHAEAGLGVNRNAFALITLTKPVTFSDGKEVSVLLTLAATDPSIHTTVAIPQIVALFELDNAIERLVACQSPKEVLEMVEESKDSPYLEGMDLNA | not failed
21 | MARTITFDIPSQYKLVDLIGEGAYGTVCSAIHKPSGIKVAIKKIQPFSKKLFVTRTIREIKLLRYFHEHENIISILDKVRPVSIDKLNAVYLVEELMETDLQKVINNQNSGFSTLSDDHVQYFTYQILRALKSIHSAQVIHRDIKPSNLLLNSNCDLKVCDFGLARCLASSSDSRETLVGFMTEYVATRWYRAPEIMLTFQEYTTAMDIWSCGCILAEMVSGKPLFPGRDYHHQLWLILEVLGTPSFEDFNQIKSKRAKEYIANLPMRPPLPWETVWSKTDLNPDMIDLLDKMLQFNPDKRISAAEALRHPYLAMYHDPSDEPEYPPLNLDDEFWKLDNKIMRPEEEEEVPIEMLKDMLYDELMKTME | failed
22 | MKEKVVSLAQDLIRRPSISPNDEGCQQIIAERLEKLGFQIEWMPFNDTLNLWAKHGTSEPVIAFAGHTDVVPTGDENQWSSPPFSAEIIDGMLYGRGAADMKGSLAAMIVAAEEYVKANPNHKGTIALLITSDEEATAKDGTIHVVETLMARDEKITYCMVGEPSSAKNLGDVVKNGRRGSITGNLYIQGIQGHVAYPHLAENPIHKAALFLQELTTYQWDKGNEFFPPTSLQIANIHAGTGSNNVIPAELYIQFNLRYCTEVTDEIIKQKVAEMLEKHNLKYRIEWNLSGKPFLTKPGKLLDSITSAIEETIGITPKAETGGGTSDGRFIALMGAEVVEFGPLNSTIHKVNECVSVEDLGKCGEIYHKMLVNLLDS | not failed
23 | MALLMSVKRQLYLWHRWLGIVACLFMALWFVSGVVMLYVGYPKLTPAERLAHLPALPAGCCAELPEHWAQQPLKALRLTSLGGRAHHLLELADGRRVILDAASGEPLARADAAWALANARQYAGEAGLAYLGTVDEDMWTHSRALDGDRPLHHVQVDDTAGTWLYLSSRTGEVVRDATAQERAWNWVGAWLHWLYPLRGGFGFDNGWRTLVIGLSLGATVMALLGMTVGILRLRLRKRYRSGSCSPYPGGWLRWHHIGGLLFGTVLVLWVFSGLMSMRPWGVTDSRSQLAPQALRQGPLRAMDIGQTVAQAMASLGREPGFNPVEIQWQRLGGDTFLVARNAAGDSRILEAGAPPARALSEQRLLTAARAMAAGVVVQANWQGHYDAYYFTRDAQSMYGFQSRPLPVLRLRFDDPASTWVYLDPASAEVVASHDARQRAGRWLFNLLHSWDLQPLLQRPVLREGLIIALSIGGLVVSLSGVVLGWRRLRRMTARVRG | failed
24 | MSVKAGDVFKYERRFTEEEVFEFANITGDKGRHHVEYDENGRLMVHGLLTASIGTKVGEELHYIARELVSEFIRPVFTGDTITCELTLTNVEQMEGYKKVSIESVYRNQHEKTVLVGTSYGIIRGLEHHHHHH | not failed
25 | LANRIENVVSQERTRKKFESLVSDSPDGIVHLTTNGTILSVNPSMAGRLGADPDTLVGQQLSAVMDSEAANQRLEAGKSAVENGTATRSEDAVGGRHYHNQYIPVDSHRKSDTFQLVSRDIT | not failed
